{"source": "patent US20190016796A1", "about": "(UNIVERSITAT ZURICH, published 2019)", "key": {"human interleukin-2": {"molecular_target": "T1, human interleukin-2 (human, UniProt P60568 21-153)", "T1 construct": "Teceleukin is named only for the in vivo treatments; also called hIL-2; human IL-2", "T1 sequence (P60568 21-153 limits assumed)": "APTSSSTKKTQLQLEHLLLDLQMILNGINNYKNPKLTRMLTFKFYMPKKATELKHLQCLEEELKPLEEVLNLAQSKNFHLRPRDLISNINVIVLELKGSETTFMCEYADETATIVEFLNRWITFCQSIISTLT", "assay": "SPR, antibody amine-coupled to GLM chip, hIL-2 as analyte (100 nM, three-fold dilutions)", "method": "For this experiment an amine coupling GLM chip was used. The activation of the carboxylic acid groups in the chip was done using a mix of 1-ethyl-3-3-dimethylaminopropyl carbodiimide hydrochloride (EDC at 0.2 M) and sulfo N-hydroxysulfosuccinimides (s_NHS at 0.05M) at 30 μl/min for 420 seconds (s). […] Deactivation was followed adding ethanolamine HCl at 30 μl/min for 300 s. Finally human IL-2 was added at different concentrations (starting from 100 nM and followed by three-fold dilutions) at 100 μl/min, 600 s association, and 240 s dissociation.\nIn order to characterize the binding properties of the anti-human IL-2 mAbs the binding to human interleukin-2 was tested with surface plasmon resonance binding assays."}, "murine interleukin-2": {"molecular_target": "T2, murine interleukin-2 (mouse, UniProt P04351 21-169)", "T2 construct": "also called mouse IL-2; mIL-2", "T2 sequence (looked up)": "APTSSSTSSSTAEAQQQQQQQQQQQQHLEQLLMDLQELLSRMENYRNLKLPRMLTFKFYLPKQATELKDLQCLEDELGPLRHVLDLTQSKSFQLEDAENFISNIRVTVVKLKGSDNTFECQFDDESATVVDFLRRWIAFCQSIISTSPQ", "assay": "SPR, NARA1 amine-coupled to a GLM chip, mouse IL-2 injected at 10 to 0.041 nM"}}, "data": [{"binder": "monoclonal antibody NARA1 (antibody, mouse IgG2a, kappa, V domains shown, also called hIL-2 mAb) VH: QVQLQQSGAELVRPGTSVKVSCKASGYAFTNYLIEWVKQRPGQGLEWIGVINPGSGGTNYNEKFKGKATLTADKSSSTAYMQLSSLTSDDSAVYFCARWRGDGYYAYFDVWGAGTTVTVSS VL: not shown", "values": [{"measurement": "Kd", "setting": "human interleukin-2", "value": 1.2, "unit": "nM"}, {"measurement": "koff", "setting": "human interleukin-2", "value": "2.08e-05", "unit": "s⁻¹"}, {"measurement": "binding result", "setting": "murine interleukin-2", "value": "no binding (tested: 10 nM)"}]}]}
